Source: the Immune Epitope Database (IEDB)
pKd: −log10 of the molar value.

Tests used:
HLA-B*48:01 = assay: IEDB peptide-MHC binding, purified MHC/competitive/fluorescence; filed as Kd, often an IC50 or EC50 that approximates it; ≥ and ≤ were set here for values at or beyond the usual limits of such assays
HLA-B*07:02 = assay: as above
HLA-B*08:01 = assay: as above; conditions: source organism: Escherichia coli O157:H7 str. EDL933
HLA-B*15:01 [1] = assay: as above; conditions: source organism: Escherichia coli O157:H7 str. EDL933
HLA-B*39:01 [2] = assay: as above
HLA-C*07:02 = assay: IEDB peptide-MHC binding, purified MHC/direct/fluorescence; filed as Kd, often an IC50 or EC50 that approximates it; ≥ and ≤ were set here for values at or beyond the usual limits of such assays; conditions: source organism: Entamoeba histolytica HM-1:IMSS
HLA-A*01:01 [3] = assay: as above; conditions: source organism: Marburg virus - Musoke, Kenya, 1980
HLA-A*03:01 = assay: as above
HLA-A*11:01 = assay: as above
HLA-A*24:03 = assay: as above
HLA-A*26:01 [4] = assay: as above
HLA-A*31:01 = assay: as above; conditions: source organism: Marburg virus - Musoke, Kenya, 1980
HLA-B*08:02 = assay: as above; conditions: source organism: Orthomarburgvirus marburgense
HLA-B*15:01 [5] = assay: as above; conditions: source organism: Marburg virus - Musoke, Kenya, 1980
HLA-B*18:01 [6] = assay: as above
HLA-B*27:05 = assay: as above; conditions: source organism: Marburg virus - Musoke, Kenya, 1980
HLA-B*39:01 [7] = assay: as above
HLA-B*40:01 = assay: as above; conditions: source organism: Marburg virus - Musoke, Kenya, 1980
HLA-B*46:01 = assay: as above; conditions: source organism: Marburg virus - Musoke, Kenya, 1980
HLA-B*57:01 = assay: as above
HLA-B*58:01 = assay: as above; conditions: source organism: Marburg virus - Musoke, Kenya, 1980
HLA-A*02:01 [8] = assay: IEDB peptide-MHC binding, purified MHC/competitive/fluorescence; filed as Kd, often an IC50 or EC50 that approximates it; ≥ and ≤ were set here for values at or beyond the usual limits of such assays
HLA-A*02:06 = assay: as above; conditions: source organism: Orthomarburgvirus marburgense
HLA-A*69:01 [9] = assay: as above
HLA-B*15:17 = assay: as above; conditions: source organism: Orthomarburgvirus marburgense
HLA-A*02:03 = assay: IEDB peptide-MHC binding, purified MHC/direct/fluorescence; filed as Kd, often an IC50 or EC50 that approximates it; ≥ and ≤ were set here for values at or beyond the usual limits of such assays
HLA-A*02:11 = assay: as above
HLA-A*02:12 = assay: as above
HLA-A*02:16 = assay: as above
HLA-A*02:19 = assay: as above
HLA-A*23:01 = assay: as above; conditions: source organism: Cryptosporidium parvum Iowa II
HLA-A*68:02 = assay: as above
HLA-A*26:01 [10] = assay: IEDB peptide-MHC binding, purified MHC/competitive/fluorescence; filed as Kd, often an IC50 or EC50 that approximates it; ≥ and ≤ were set here for values at or beyond the usual limits of such assays; conditions: source organism: Cryptosporidium parvum Iowa II
HLA-B*18:01 [11] = assay: as above; conditions: source organism: Cryptosporidium parvum Iowa II
HLA-B*27:03 [12] = assay: as above; conditions: source organism: Cryptosporidium parvum Iowa II
HLA-B*51:01 [13] = assay: as above; conditions: source organism: Cryptosporidium parvum Iowa II
HLA-A*02:01 [14] = assay: IEDB peptide-MHC binding, purified MHC/direct/fluorescence; filed as Kd, often an IC50 or EC50 that approximates it; ≥ and ≤ were set here for values at or beyond the usual limits of such assays; conditions: source organism: Mammarenavirus machupoense
HLA-A*69:01 [15] = assay: as above; conditions: source organism: Mammarenavirus machupoense
HLA-B*27:03 [16] = assay: as above; conditions: source organism: Mammarenavirus machupoense
HLA-B*51:01 [17] = assay: as above; conditions: source organism: Mammarenavirus machupoense
HLA-A*01:01 [18] = assay: IEDB peptide-MHC binding, purified MHC/competitive/radioactivity; filed as Kd, often an IC50 or EC50 that approximates it; ≥ and ≤ were set here for values at or beyond the usual limits of such assays; conditions: source organism: Mammarenavirus machupoense
HLA-A*29:02 = assay: as above; conditions: source organism: Mammarenavirus machupoense
HLA-A*30:01 = assay: as above; conditions: source organism: Mammarenavirus machupoense
HLA-A*30:02 = assay: as above; conditions: source organism: Mammarenavirus machupoense
HLA-A*32:01 = assay: as above; conditions: source organism: Mammarenavirus machupoense
[19] = source organism: Escherichia coli O157:H7 str. EDL933
[20] = source organism: Marburg virus - Musoke, Kenya, 1980
[21] = source organism: Orthomarburgvirus marburgense
[22] = source organism: Cryptosporidium parvum Iowa II
[23] = source organism: Mammarenavirus machupoense

## AQELVGHQL
HLA-B*48:01; source organism: Escherichia coli O139:H28 str. E24377A
  pKd: ≤ 4.70

## MQRSGMLSL
HLA-B*07:02; [19]
  pKd: 8.15
HLA-B*08:01
  pKd: 6.70
HLA-B*15:01 [1]
  pKd: 7.10
HLA-B*39:01 [2]; [19]
  pKd: 7.21

## FQFTLHWEL
HLA-C*07:02
  pKd: 5.69
HLA-B*48:01; source organism: Entamoeba histolytica HM-1:IMSS
  pKd: 6.14

## LYKTIVNIW
HLA-A*01:01 [3]
  pKd: ≤ 4.70
HLA-A*03:01; [20]
  pKd: ≤ 4.70
HLA-A*11:01; [20]
  pKd: ≤ 4.70
HLA-A*24:03; [20]
  pKd: 6.80
HLA-A*26:01 [4]; [21]
  pKd: ≤ 4.70
HLA-A*31:01
  pKd: ≤ 4.70
HLA-B*08:02
  pKd: ≤ 4.70
HLA-B*15:01 [5]
  pKd: ≤ 4.70
HLA-B*18:01 [6]; [20]
  pKd: ≤ 4.70
HLA-B*27:05
  pKd: ≤ 4.70
HLA-B*39:01 [7]; [21]
  pKd: ≤ 4.70
HLA-B*40:01
  pKd: ≤ 4.70
HLA-B*46:01
  pKd: ≤ 4.70
HLA-B*57:01; [20]
  pKd: ≤ 4.70
HLA-B*58:01
  pKd: ≤ 4.70
HLA-A*02:01 [8]; [21]
  pKd: 7.29
HLA-A*02:06
  pKd: 6.96
HLA-A*69:01 [9]; [21]
  pKd: 5.80
HLA-B*15:17
  pKd: ≤ 4.70
HLA-B*48:01; [21]
  pKd: ≤ 4.70

## MSQMPPHPY
HLA-A*02:03; [22]
  pKd: ≤ 4.70
HLA-A*02:11; [22]
  pKd: ≤ 4.70
HLA-A*02:12; [22]
  pKd: ≤ 4.70
HLA-A*02:16; [22]
  pKd: ≤ 4.70
HLA-A*02:19; [22]
  pKd: ≤ 4.70
HLA-A*03:01; [22]
  pKd: ≤ 4.70
HLA-A*11:01; [22]
  pKd: 6.42
HLA-A*23:01
  pKd: ≤ 4.70
HLA-A*24:03; [22]
  pKd: ≤ 4.70
HLA-A*68:02; [22]
  pKd: ≤ 4.70
HLA-A*02:01 [8]; [22]
  pKd: ≤ 4.70
HLA-A*26:01 [10]
  pKd: ≤ 4.70
HLA-A*69:01 [9]; [22]
  pKd: ≤ 4.70
HLA-B*18:01 [11]
  pKd: ≤ 4.70
HLA-B*27:03 [12]
  pKd: ≤ 4.70
HLA-B*39:01 [2]; [22]
  pKd: ≤ 4.70
HLA-B*51:01 [13]
  pKd: ≤ 4.70

## GQAARDKHL
HLA-B*48:01; source organism: Burkholderia vietnamiensis G4
  pKd: ≤ 4.70

## FPSSSYRRPV
HLA-B*07:02; source organism: Influenza A virus (A/Fort Monmouth/1/1947-mouse adapted(H1N1))
  pKd: 8.80

## LITEQFLCY
HLA-A*02:01 [14]
  pKd: ≤ 4.70
HLA-A*02:03; [23]
  pKd: ≤ 4.70
HLA-A*02:11; [23]
  pKd: ≤ 4.70
HLA-A*02:12; [23]
  pKd: ≤ 4.70
HLA-A*02:16; [23]
  pKd: ≤ 4.70
HLA-A*02:19; [23]
  pKd: ≤ 4.70
HLA-A*26:01 [4]; [23]
  pKd: ≤ 4.70
HLA-A*68:02; [23]
  pKd: ≤ 4.70
HLA-A*69:01 [15]
  pKd: ≤ 4.70
HLA-B*18:01 [6]; [23]
  pKd: ≤ 4.70
HLA-B*27:03 [16]
  pKd: ≤ 4.70
HLA-B*39:01 [7]; [23]
  pKd: ≤ 4.70
HLA-B*51:01 [17]
  pKd: ≤ 4.70
HLA-B*57:01; [23]
  pKd: ≤ 4.70
HLA-A*01:01 [18]
  pKd: 7.19
HLA-A*29:02
  pKd: 8.88
HLA-A*30:01
  pKd: 5.20
HLA-A*30:02
  pKd: 5.73
HLA-A*32:01
  pKd: ≤ 4.60
